Reference: article PMC3226476
Where two headings read alike, the source gives them in different places.

Columns and labels:
Experiment in all cases: co-sedimentation
[1] = target: Taxol-stabilized microtubules (polymerized porcine brain tubulin) (porcine (purified from brain)) (UniProt P02550)
[2] = target: Taxol-stabilized microtubules (polymerized porcine brain tubulin) (porcine (purified from brain)) (UniProt P02550); remark: listed apart in the source
[3] = target: mDia1-FH1FH2C (mouse, amino acids 548-1255) (mouse) (UniProt O08808)
[4] = target: INF2-FH1FH2 (human, 469-941) (human) (UniProt Q27J81)
[5] = target: mDia2-FH1FH2C (mouse, 521-1171) (mouse) (UniProt Q9Z207)

Substance | Kd [1] [µM] | stoichiometry N (tubulin dimer:formin dimer) [1] | further results
GST-INF2-Cterm (human CAAX variant, 941-1249) (from UniProt Q27J81 941-1249) (domain or fragment) | > 20 |  | 
GST-mDia1-Cterm (1149-1255) (from UniProt O08808 1149-1255) (domain or fragment) | > 20 |  | 
GST-mDia2-Cterm (1009-1171) (from UniProt Q9Z207 1009-1171) (domain or fragment) | 710 | 0.6 | Kd [2]: 0.71 µM
LatB-stabilized actin monomers (rabbit skeletal muscle actin) (from UniProt P68135 1-377) (natural protein) |  |  | percent of the actin in the pellet [3]: 10%; percent of the actin in the pellet [4]: 10%; percent of the actin in the pellet [5]: 10%
mDia1-FH1FH2C (mouse, amino acids 548-1255) (from UniProt O08808 548-1255) (domain or fragment) |  | 3.09 | 
